Measured values as given in US20150079111A1, “MECHANISM, DIAGNOSTIC, AND TREATMENTS FOR COMPLICATIONS OF RENAL FAILURE” (priority 2012, published 2015).

Tests used:
[1] = system: renin-angiotensin-aldosterone (RAS) proteins AGT, ACE, AT1; assay: RAS protein levels (AGT, ACE, AT1) in PTCs by Western blot; type: cell-based, human; conditions: PTCs treated, then exposed to 100 μg/ml of AOPPs (sample set D)
Protocol: (§1) Human Tubular Epithelial Cells (HUTEC) cells were cultured in DMEF/F-12 medium containing 10% fetal calf serum, penicillin (200 U/ml) and streptomycin (200 ug/ml) until confluence, and then left serum-free overnight.
In sample set D, the PTCs were treated with either copper-zinc superoxide dismutase (an […], c-SOD), one of two inhibitors of NADPH oxidase (either diphenyleneiodonium (DPI) or apocynin), a pan-PKC inhibitor (Go6983), or PKCα inhibitor (Go6976). The PTCs were then exposed to 100 μg/ml of AOPPs. The protein levels of downstream renin-angiotensin-aldosterone (RAS) proteins were measured relative to β-actin. The expression of […], ACE, and AT1 was examined by Western blot.

[2] = patients with type-2 diabetes; cited from earlier work
[3] = system: p47phox, a subunit of NADPH oxidase; assay: Phosphorylation of p47phox in AOPP-exposed proximal tubule cells (immunoprecipitation / co-immunoprecipitation); type: cell-based, human; conditions: PTCs incubated with inhibitor before AOPP exposure (sample set B)
Protocol: as §1
In sample set B, PTCs were incubated with either a pan-PKC inhibitor (Gö6983) or PKCα inhibitor (Gö6976) before AOPP exposure. Phosphorylation of p47phox was assayed by immunoprecipitation.
In sample set F, the level of phosphorylated p47phox in PTC cells was analyzed by co-immunoprecipitation.

[4] = system: proximal tubule cells (PTCs); assay: Intracellular ROS production in proximal tubule cells, fluorometric analysis; type: cell-based, human; conditions: PTCs pre-incubated or transfected, then exposed to AOPPs (sample set C)
Protocol: as §1
In sample set C, the PTC cells were pre-incubated with either a pan-PKC inhibitor (Gö6983), PKCα inhibitor (Gö6976), anti-RAGE antibody (a-RAGE), transfected with a CD36 siRNA (si-CD36), or both anti-RAGE antibody and transfected with CD36 siRNA (si-CD36+a-RAGE). The PTC cells were then exposed to AOPPs. Intracellular ROS production was determined by a fluorometric analysis.

[5] = system: human microvascular endothelial cell (HMVECad); assay: Intracellular ROS production in HMVECad cells, fluorometric analysis; type: cell-based; conditions: for intracellular ROS: HMVECads exposed to modified RSA versus control unmodified RSA; for intracellular ROS production: HMVECads, 100 μg/ml for 15, 30, 60 or 120 minutes, effect of exposure time
Text: (§2) Interfering with human microvascular endothelial cell (HMVECad) SCARB1 expression or blocking the receptor using an antibody ameliorates the effect of MDA-protein or pentosidine-protein on intracellular ROS production. Cryopreserved HMVECads were purchased from Life Technologies and cultured according to the company's instructions in Medium 131 with attachment factor (M-131-500) and addition of Microvascular Growth Supplement until confluence, and then left serum-free overnight.
First, HMVECads were treated with 100 μg/ml of one of three solutions. The first solution (MDA-protein) was rat serum albumin (RSA) treated with an equimolar 1 mmol/L solution of malondialdehyde (MDA) and acetaldehyde for 3 days at 37° C. The second solution was pentosidine-RSA, prepared by incubating 0.5 mg of normal RSA with 0.1 M D-glucose in 0.5 ml of 0.1 M sodium phosphate at 37° C. for 14 days. The third solution (the control) was untreated RSA from the same batch. The HMVECads were treated for 15, 30, 60, or 120 minutes. Following the indicated time, intracellular ROS production was determined by a fluorometric analysis.
(§3) Next, the cells were pre-incubated with a polyclonal anti-SCARB1 antibody (a-SRB) or a polyclonal anti-CD36 antibody (a-CD36) or transfected with either SCARB1 siRNA (si-SRB) or CD36 siRNA (siCD36) before exposure to MDA-RSA or Pent-RSA as above. The pre-incubations were performed in various combinations. The labels beneath each set of bars indicate which pre-incubation and which exposure was made to that set. The bars labelled “NC-siRNA” were pre-incubated with scramble siRNA and exposed to untreated RSA. The dark bars are read using the left y-axis, and the white bars are read using the right y-axis.
(§4) The intracellular ROS was a proxy for NADPH oxidase activation and mitochondrial leakage, both of which are linked to cellular stress and induction of apoptosis. The phospho-PKCα measured membrane-associated PKC signalling induced by oxidation and linked to activation of NADPH oxidase and other cellular stressors.

[6] = system: PKCα; assay: Phospho-PKCα (membrane-associated PKC signalling, cellular stress) in HMVECad cells; type: cell-based, human; conditions: HMVECads exposed to modified RSA versus control unmodified RSA
Text: as §2
Next, the cells were pre-incubated with a polyclonal anti-SCARB1 antibody (a-SRB) or a polyclonal anti-CD36 antibody (a-CD36) or transfected with either SCARB1 siRNA (si-SRB) or CD36 siRNA (siCD36) before exposure to MDA-RSA or Pent-RSA as above. The pre-incubations were performed in various combinations. The labels beneath each set of bars indicate which pre-incubation and which exposure was made to that set. […] The dark bars are read using the left y-axis, and the white bars are read using the right y-axis.
as §4

[7] = system: AGT, ACE and AT1; assay: Expression of AGT, ACE and AT1 in HMVECad cells by Western blotting; type: cell-based, human; conditions: HMVECads, 60 minutes, modified RSA versus control
Text: as §2, §3
After incubating for 60 minutes, the intracellular ROS production was again determined for the cells of FIG. 20 by a fluorometric analysis. The expression levels of AGT, ACE and AT1 were examined by Western blotting.

## copper-zinc superoxide dismutase [c-SOD]
[1]
  protein levels of RAS proteins (AGT, ACE, AT1) relative to β-actin: lower levels of these proteins

## CC1(C)CC[C@]2(C(=O)O)CC[C@]3(C)[C@H](C(=O)C=C4[C@@]5(C)C=C(C#N)C(=O)C(C)(C)[C@@H]5CC[C@]43C)[C@@H]2C1 [bardoxolone]
[2]
  nephroprotective effect: nephroprotective

## c1ccc2c(c1)[I+]c1ccccc1-2 [DPI, diphenyleneiodonium]
[1]
  protein levels of RAS proteins (AGT, ACE, AT1) relative to β-actin: lower levels of these proteins

## Cn1c2ccccc2c2c3c(c4c5ccccc5n(CCC#N)c4c21)CNC3=O [Gö6976, 12-(2-Cyanoethyl)-6,7,12,13-tetrahydro-13-methyl-5-oxo-5H-indolo(2,3-a)pyrrolo(3,4-c)-carbazole]
[3]
  phosphorylation of p47phox: p47phox is phosphorylated through pan-PKC or PKCα
[4]
  intracellular ROS production: Further reduction
[1]
  protein levels of RAS proteins (AGT, ACE, AT1) relative to β-actin: lower levels of these proteins

## COc1cc(C(C)=O)ccc1O [apocynin]
[1]
  protein levels of RAS proteins (AGT, ACE, AT1) relative to β-actin: lower levels of these proteins

B1: MDA-RSA: rat serum albumin treated with an equimolar 1 mmol/L solution of malondialdehyde and acetaldehyde for 3 days at 37° C. (protein)
chain: EAHKSEIAHRFKDLGEQHFKGLVLIAFSQYLQKCPYEEHIKLVQEVTDFAKTCVADENAENCDKSIHTLFGDKLCAIPKLRDNYGELADCCAKQEPERNECFLQHKDDNPNLPPFQRPEAEAMCTSFQENPTSFLGHYLHEVARRHPYFYAPELLYYAEKYNEVLTQCCTESDKAACLTPKLDAVKEKALVAAVRQRMKCSSMQRFGERAFKAWAVARMSQRFPNAEFAEITKLATDVTKINKECCHGDLLECADDRAELAKYMCENQATISSKLQACCDKPVLQKSQCLAEIEHDNIPADLPSIAADFVEDKEVCKNYAEAKDVFLGTFLYEYSRRHPDYSVSLLLRLAKKYEATLEKCCAEGDPPACYGTVLAEFQPLVEEPKNLVKTNCELYEKLGEYGFQNAVLVRYTQKAPQVSTPTLVEAARNLGRVGTKCCTLPEAQRLPCVEDYLSAILNRLCVLHEKTPVSEKVTKCCSGSLVERRPCFSALTVDETYVPKEFKAETFTFHSDICTLPDKEKQIKKQTALAELVKHKPKATEDQLKTVMGDFAQFVDKCCKAADKDNCFATEGPNLVARSKEALA
[5]
  intracellular ROS: caused an increase in activity compared to the control
  intracellular ROS production: greater ROS production
[6]
  phospho-PKCα (cellular stress signalling): caused an increase in activity compared to the control
[7]
  expression levels of AGT, ACE and AT1: caused an increase in activity compared to the control

B2: Pent-RSA: prepared by incubating normal RSA with 0.1 M D-glucose in sodium phosphate at 37° C. for 14 days (protein)
chain: B1 chain
[5]
  intracellular ROS: caused an increase in activity compared to the control
  intracellular ROS production: greater ROS production
[6]
  phospho-PKCα (cellular stress signalling): caused an increase in activity compared to the control
[7]
  expression levels of AGT, ACE and AT1: caused an increase in activity compared to the control
